The source of these data is US20150344570A1 (published 2015).

One experiment concerns the target T1, FcγRIIb (human, UniProt P31994 43-217).
T1 construct: extracellular domain; Soluble extracellular domain with C-terminal His tag, used as analyte; also called FcgRIIb; CD32B; not shown: His tag at the C terminus
T1 sequence (looked up): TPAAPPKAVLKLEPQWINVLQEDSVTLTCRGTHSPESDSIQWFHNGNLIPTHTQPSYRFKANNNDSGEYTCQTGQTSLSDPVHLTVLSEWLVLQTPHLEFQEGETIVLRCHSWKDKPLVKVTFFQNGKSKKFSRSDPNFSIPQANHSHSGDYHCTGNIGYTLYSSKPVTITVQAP
Briefly: SPR (Biacore), captured antibody, FcγR as analyte, relative binding. (In SPR one partner is held on a chip, and binding of the other changes the refractive index at the surface.)

For another experiment, the target named is T2, FcγRIa (human, UniProt P12314 16-292).
T2 construct: extracellular domain; Soluble extracellular domain with C-terminal His tag, used as analyte; also called FcgRI; CD64; not shown: His tag at the C terminus
Described as above.

T2 sequence (P12314 16-292): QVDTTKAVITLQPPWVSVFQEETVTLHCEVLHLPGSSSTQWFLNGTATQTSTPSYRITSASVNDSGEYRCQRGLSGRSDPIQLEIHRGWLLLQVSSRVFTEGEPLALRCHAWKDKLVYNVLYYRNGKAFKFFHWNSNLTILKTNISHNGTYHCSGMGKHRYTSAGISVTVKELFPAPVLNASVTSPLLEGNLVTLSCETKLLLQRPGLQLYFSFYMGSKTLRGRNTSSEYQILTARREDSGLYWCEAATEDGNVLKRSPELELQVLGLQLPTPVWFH

B1: GpH7-A5/GpH7-B3 variant S337_03V/GpL16-k0 (antibody, human IgG1, kappa)
heavy 1: not shown
heavy 2: not shown
light: DIVMTQSPLSLPVTPGEPASISCQASESLVHSNRNTYLHWYLQKPGQSPQLLIYKVSNRFSGVPDRFSGSGSGTDFTLKISRVEAEDVGVYYCSQNTHVPPTFGQGTKVEIERTVAAPSVFIFPPSDEQLKSGTASVVCLLNNFYPREAKVQWKVDNALQSGNSQESVTEQDSKDSTYSLSSTLTLSKADYEKHKVYACEVTHQGLSSPVTKSFNRGEC
notes: He Ab: mutation in one H chain only; also called He Ab
On to B1, for which the He/Con_2b with FcγRIIb is 98.9 % of GpH7-A5/GpH7-B3/GpL16-k0. The He/Con_1a with FcγRIa was 107 % of GpH7-A5/GpH7-B3/GpL16-k0.

B2: GpH7-A5/GpH7-B3 variant S337_12R/GpL16-k0 (antibody, human IgG1, kappa)
heavy 1: not shown
heavy 2: not shown
light: DIVMTQSPLSLPVTPGEPASISCQASESLVHSNRNTYLHWYLQKPGQSPQLLIYKVSNRFSGVPDRFSGSGSGTDFTLKISRVEAEDVGVYYCSQNTHVPPTFGQGTKVEIERTVAAPSVFIFPPSDEQLKSGTASVVCLLNNFYPREAKVQWKVDNALQSGNSQESVTEQDSKDSTYSLSSTLTLSKADYEKHKVYACEVTHQGLSSPVTKSFNRGEC
notes: as for B1
As for B2, the He/Con_2b with FcγRIIb is 99.5 % of GpH7-A5/GpH7-B3/GpL16-k0. For the same molecule, the He/Con_1a with FcγRIa is 106 % of GpH7-A5/GpH7-B3/GpL16-k0.

B3: GpH7-A5/GpH7-B3 variant S337_11K/GpL16-k0 (antibody, human IgG1, kappa)
heavy 1: not shown
heavy 2: not shown
light: DIVMTQSPLSLPVTPGEPASISCQASESLVHSNRNTYLHWYLQKPGQSPQLLIYKVSNRFSGVPDRFSGSGSGTDFTLKISRVEAEDVGVYYCSQNTHVPPTFGQGTKVEIERTVAAPSVFIFPPSDEQLKSGTASVVCLLNNFYPREAKVQWKVDNALQSGNSQESVTEQDSKDSTYSLSSTLTLSKADYEKHKVYACEVTHQGLSSPVTKSFNRGEC
notes: as for B1
Take B3: in the experiment with FcγRIIb, the He/Con_2b is 94.3 % of GpH7-A5/GpH7-B3/GpL16-k0. Also, the He/Con_1a in the experiment with FcγRIa was 104 % of GpH7-A5/GpH7-B3/GpL16-k0.

B4: GpH7-A5/GpH7-B3 variant Y300_02A/GpL16-k0 (antibody, human IgG1, kappa)
heavy 1: not shown
heavy 2: not shown
light: DIVMTQSPLSLPVTPGEPASISCQASESLVHSNRNTYLHWYLQKPGQSPQLLIYKVSNRFSGVPDRFSGSGSGTDFTLKISRVEAEDVGVYYCSQNTHVPPTFGQGTKVEIERTVAAPSVFIFPPSDEQLKSGTASVVCLLNNFYPREAKVQWKVDNALQSGNSQESVTEQDSKDSTYSLSSTLTLSKADYEKHKVYACEVTHQGLSSPVTKSFNRGEC
notes: as for B1
Regarding B4, the He/Con_2b with FcγRIIb is 69.2 % of GpH7-A5/GpH7-B3/GpL16-k0. Moreover, the He/Con_1a with FcγRIa is 112 % of GpH7-A5/GpH7-B3/GpL16-k0.

B5: GpH7-A5/GpH7-B3 variant S337_06M/GpL16-k0 (antibody, human IgG1, kappa)
heavy 1: not shown
heavy 2: not shown
light: DIVMTQSPLSLPVTPGEPASISCQASESLVHSNRNTYLHWYLQKPGQSPQLLIYKVSNRFSGVPDRFSGSGSGTDFTLKISRVEAEDVGVYYCSQNTHVPPTFGQGTKVEIERTVAAPSVFIFPPSDEQLKSGTASVVCLLNNFYPREAKVQWKVDNALQSGNSQESVTEQDSKDSTYSLSSTLTLSKADYEKHKVYACEVTHQGLSSPVTKSFNRGEC
notes: as for B1
Regarding B5, in the experiment with FcγRIIb, the He/Con_2b was 96.7 % of GpH7-A5/GpH7-B3/GpL16-k0. Further, the He/Con_1a with FcγRIa was 107 % of GpH7-A5/GpH7-B3/GpL16-k0.

B6: GpH7-A5/GpH7-B3 variant Y300_03V/GpL16-k0 (antibody, human IgG1, kappa)
heavy 1: not shown
heavy 2: not shown
light: DIVMTQSPLSLPVTPGEPASISCQASESLVHSNRNTYLHWYLQKPGQSPQLLIYKVSNRFSGVPDRFSGSGSGTDFTLKISRVEAEDVGVYYCSQNTHVPPTFGQGTKVEIERTVAAPSVFIFPPSDEQLKSGTASVVCLLNNFYPREAKVQWKVDNALQSGNSQESVTEQDSKDSTYSLSSTLTLSKADYEKHKVYACEVTHQGLSSPVTKSFNRGEC
notes: as for B1
For the molecule B6, the He/Con_2b in the experiment with FcγRIIb was 73.9 % of GpH7-A5/GpH7-B3/GpL16-k0. Moreover, in the experiment with FcγRIa, the He/Con_1a is 117 % of GpH7-A5/GpH7-B3/GpL16-k0.

B7: GpH7-A5/GpH7-B3 variant S337_04F/GpL16-k0 (antibody, human IgG1, kappa)
heavy 1: not shown
heavy 2: not shown
light: DIVMTQSPLSLPVTPGEPASISCQASESLVHSNRNTYLHWYLQKPGQSPQLLIYKVSNRFSGVPDRFSGSGSGTDFTLKISRVEAEDVGVYYCSQNTHVPPTFGQGTKVEIERTVAAPSVFIFPPSDEQLKSGTASVVCLLNNFYPREAKVQWKVDNALQSGNSQESVTEQDSKDSTYSLSSTLTLSKADYEKHKVYACEVTHQGLSSPVTKSFNRGEC
notes: as for B1
On to B7, for which the He/Con_2b in the experiment with FcγRIIb is 97.8 % of GpH7-A5/GpH7-B3/GpL16-k0. In the experiment with FcγRIa, the He/Con_1a is 106 % of GpH7-A5/GpH7-B3/GpL16-k0.

B8: GpH7-A5/GpH7-B3 variant S337_19Q/GpL16-k0 (antibody, human IgG1, kappa)
heavy 1: not shown
heavy 2: not shown
light: DIVMTQSPLSLPVTPGEPASISCQASESLVHSNRNTYLHWYLQKPGQSPQLLIYKVSNRFSGVPDRFSGSGSGTDFTLKISRVEAEDVGVYYCSQNTHVPPTFGQGTKVEIERTVAAPSVFIFPPSDEQLKSGTASVVCLLNNFYPREAKVQWKVDNALQSGNSQESVTEQDSKDSTYSLSSTLTLSKADYEKHKVYACEVTHQGLSSPVTKSFNRGEC
notes: as for B1
Consider B8, for which, in the experiment with FcγRIIb, the He/Con_2b was 99.7 % of GpH7-A5/GpH7-B3/GpL16-k0. For the same molecule, the He/Con_1a with FcγRIa is 105 % of GpH7-A5/GpH7-B3/GpL16-k0.
